Data: US20110229908A1
Values belong to the binder of their own block, whether it stands above or below them.

Legend:
BJ kappa Bo (human) = assay: haemagglutination of sheep RBC coated with BJ kappa Bo
BJ kappa Ke (human) = assay: haemagglutination of sheep RBC coated with BJ kappa Ke

MAb dilution used against coated red cells (BJ kappa Bo (human)): 1e-05 dilution
B1: monoclonal antibody 1B6 (antibody, mouse IgG1, V domains shown)
VH: RQFPGNKLEWMGYINYSGITSYNPSLKSRFSITRDTSKNQFFLQLNSVTTEDTATYYCASWYYGNWYFDVWGAGTTVTVSS
VL: DIQMTQSPASLSVSVGETVTITCRASENIYSNLAWYQQKQGNSPQLLVYAATNLADGVPSRFSGSGSGTQYSLKINSLQSEDFGNYYCQHFWGTPWTFGGGTKLEIKR

MAb dilution used against coated red cells (BJ kappa Ke (human)): 1e-05 dilution
B2: monoclonal antibody KA1 (antibody, V domains shown)
VH: DVQLQESGPGLVNPSQSLSLTCTVTGYSITGDYAWNWIRQFPGNKLEWMGYISYSGLTSYNPSLKSRISITRDTSKNQFFLQLNSVATEDTATYYCTSFYYGYWYFDVWGAGTTVTVSS
VL: DIQMTQSPASLSASVGETVTITCRASENIYSFLTWYLQKQGKSPQLLVNNAKTLAEGVPSRFSGSGSGSQFSLKINSLQPEDFGTYYCQHHYGTPYTFGGGTKLEIKR
